{"source": "paper PMC3354962", "about": "(Advances in bioscience and biotechnology (Print), 2011)", "key": {"[1]": {"test_system": "proteases", "assay": "Protease digestion, summary over the panel of proteases", "format": "in vitro ADME", "conditions": "of the 9 proteases tested; 1 µU enzyme, 1 hr, 37°C, SDS-PAGE"}, "[2]": {"test_system": "Trypsin", "assay": "Protease digestion, SDS-PAGE: trypsin", "format": "in vitro ADME", "conditions": "1 µU trypsin, 1 hr, 37°C, Coomassie, Figure 1"}}, "data": [{"substance": "Griffithsin [GRFT]", "values": [{"measurement": "Number of proteases the material was resistant to", "setting": "[1]", "value": 8}]}, {"substance": "PSC-RANTES", "values": [{"measurement": "Appearance of peptide bands on SDS-PAGE after digestion by trypsin", "setting": "[2]", "value": "reduced intensity or density rather than disappearing"}]}]}
